Changes are numbered by the printed parent chain. Like-named read-outs stand apart in the source and are kept apart here.
Assays:
[1] = biological target: T1, full-length recombinant mouse PrP (recPrP23-231) (Mus musculus, UniProt P04925); test: ELISA; conditions: both partners purified
T1 construct: source: recombinant, produced as described (Lysek & Wuthrich, 2004)

human recPrP_(23-230) [2] = biological target: T2, human recPrP_(23-230) (Homo sapiens, UniProt P04156); test: ELISA; conditions: both partners purified
T2 construct: source: recombinant, produced as described (Lysek & Wuthrich, 2004)

human recPrP_(23-230) [3] = biological target: T2, human recPrP_(23-230)
[4] = biological target: T3, full-length recombinant mouse PrP (recPrP_(23-231)) (Mus musculus, UniProt P04925); test: SPR; […]; 25°C; 10 mM Tris/HCl pH 8.5, 500 mM NaCl, 3 mM EDTA, 0.05% Tween-20; 1:1 Langmuir fit; ProteOn XPR36; conditions: both partners purified
T3 construct: source: recombinant, produced as described (Lysek & Wuthrich, 2004)

peptide P17 = biological target: T4, peptide P17 (Mus musculus); test: co-IP; conditions: both partners purified
T4 chain: TWGQPHGGGWGQ

[5] = biological target: T1, full-length recombinant mouse PrP …; test: ELISA; conditions: both partners purified; remark: listed apart in the source

B1: Fab13 (Fab, V domains shown)
VH: QVQLVESGGGVVQPGRSLRLSCAASGFTFSSYGMHWVRQAPGKGLEWVAVISYEGSNKYYADSVKGRFTISRDNSKNTLYLQMNSLRAEDTAVYYCARVWSPDGYPGFDYWGQGTLVTVSS
VL: not shown
notes: source: E. coli BL21(DE3), purified (IMAC)
binding result [1]: binds

B2: DK_VH3-07 Fab (Fab, V domains shown)
VH: EVQLVESGGGLVQPGGSLRLSCAASGFTFSSYWMSWVRQAPGKGLEWVANIKQDGSEKYYVDSVKGRFTISRDNAKNSLYLQMNSLRAEDTAVYYCARSYGGYFDYWGQGTLVTVSS
VL: QSALTQPASVSGSPGQSITISCTGTSSDVGGYNYVSWYQQHPGKAPKLMIYEVSNRPSGVSNRFSGSKSGNTASLTISGLQAEDEADYYCTSYTSSSTHVVFGGGTKLTVL
notes: source: expressed in bacteria (pPE2 vector), purified
EC50 (human recPrP_(23-230) [2]): 62800 nM | binding result (human recPrP_(23-230) [2]): no binding (tested: Fabs tested starting from 3 μM)

B3: Fab53 (Fab, V domains shown)
VH: QVQLVESGGGVVQPGRSLRLSCAASGFTFSSYGMHWVRQAPGKGLEWVAVISYEGSNKYYADSVKGRFTISRDNSKNTLYLQMNSLRAEDTAVYYCARVYVYRSYRHSSGYGYPGFDVWGQGTLVTVSS
VL: not shown
notes: as for B1
binding result [1]: binds

B4: Fab61 (Fab, V domains shown)
VH: B3 VH with V101P, R103P, S104Y, Y105V, R106Y, H107A, S108E, G110D, Y111G, G112S
VL: not shown
notes: as for B1
binding result [1]: binds

B5: BB_VH3-33 (antibody, V domains shown)
VH: QVQLVESGGGVVQPGRSLRLSCAASGFTFSSYGMHWVRQAPGKGLEWVAVIWYDGSNKYYADSVKGRFTISRDNSKNTLYLQMNSLRAEDTAVYYCAREHSYGGYFDYWGQGTLVTVSS
VL: not shown
binding result (human recPrP_(23-230) [3]): binds

B6: Fab71 (Fab, V domains shown)
VH: B5 VH with W52S, D54E, E99H, H100V
VL: not shown
notes: also called anti-OR_(51-91) Fab71; source: E. coli BL21(DE3), pPE2 vector, purified by IMAC (Ni-NTA)
Kd [4]: 6.2 nM | koff [4]: 0.00245 s⁻¹ | binding result (peptide P17): binds

B7: Fab71 (Fab, V domains shown)
VH: B5 VH with W52S, D54E, E99H, H100V
VL: not shown
notes: as for B1
EC50 [5]: 24.9 nM

B8: BB_VH3-66 (antibody, V domains shown)
VH: EVQLVESGGGLVQPGGSLRLSCAASGFTVSSNYMSWVRQAPGKGLEWVSVIYSGGSTYYADSVKGRFTISRDNSKNTLYLQMNSLRAEDTAVYYCARSGSYGGYFDYWGQGTLVTVSS
VL: not shown
binding result (human recPrP_(23-230) [3]): binds

B9: DW_VH3-53 (antibody, V domains shown)
VH: B8 VH with S7T, V12I, S98V, G99S, S100Y, Y101G, G103Y
VL: not shown
binding result (human recPrP_(23-230) [3]): binds

B10: Fab8 (Fab, V domains shown)
VH: QVQLVESGGGVVQPGRSLRLSCAASGFTFSSYGMHWVRQAPGKGLEWVAVISYEGSNKYYADSVKGRFTISRDNSKNTLYLQMNSLRAEDTAVYYCARHYGGRLDYWGQGTLVTVSS
VL: not shown
notes: as for B1
binding result [1]: binds

B11: Fab10 (Fab, V domains shown)
VH: B10 VH with R103W, L104F
VL: not shown
notes: as for B1
binding result [1]: binds

B12: Fab12 (Fab, V domains shown)
VH: B10 VH with R103Q
VL: not shown
notes: as for B1
binding result [1]: binds

B13: BB_VH3-21 (antibody, V domains shown)
VH: EVQLVESGGGLVKPGGSLRLSCAASGFTFSSYSMNWVRQAPGKGLEWVSSISSSSSYIYYADSVKGRFTISRDNAKNSLYLQMNSLRAEDTAVYYCARVSYGGYFDYWGQGTLVTVSS
VL: not shown
binding result (human recPrP_(23-230) [3]): binds

B14: Fab69 (Fab, V domains shown)
VH: QVQLVESGGGVVQPGRSLRLSCAASGFTFSSYGMHWVRQAPGKGLEWVAVISYEGSNKYYADSVKGRFTISRDNSKNTLYLQMNSLRAEDTAVYYCARVHPGVHYRPGGFDYWGQGTLVTVSS
VL: not shown
notes: as for B1
binding result [1]: binds

B15: Fab44 (Fab, V domains shown)
VH: QVQLVESGGGVVQPGRSLRLSCAASGFTFSSYGMHWVRQAPGKGLEWVAVISYEGSNKYYADSVKGRFTISRDNSKNTLYLQMNSLRAEDTAVYYCARVAYAVGSSYRSSSYSPGFDVWGQGTLVTVSS
VL: not shown
notes: as for B1
binding result [1]: binds
